Data reported in patent US20240043537A1.
Where a chain is given by its changes, count along the chain named.

B1: DART-A-M1 (bispecific antibody)
chain 1: DFVMTQSPDSLAVSLGERVTMSCKSSQSLLNSGNQKNYLTWYQQKPGQPPKLLIYWASTRESGVPDRFSGSGSGTDFTLTISSLQAEDVAVYYCQNDYSYPYTFGQGTKLEIKGGGSGGGGEVQLVESGGGLVQPGGSLRLSCAASGFTFSTYAMNWVRQAPGKGLEWVGRIRSKYNNYATYYADSVKDRFTISRDDSKNSLYLQMNSLKTEDTAVYYCVRHGNFGNSYVTWFAYWGQGTLVTVSSGGCGGGKVAALKEKVAALKEKVAALKEKVAALKE
chain 2: QAVVTQEPSLTVSPGGTVTLTCRSSTGAVTTSNYANWVQQKPGQAPRGLIGGTNKRAPWTPARFSGSLLGGKAALTITGAQAEDEADYYCALWYSNLWVFGGGTKLTVLGGGGSGGGGEVQLVQSGAELKKPGASVKVSCKASGYTFTDYYMKWVRQAPGQGLEWIGDIIPSNGATFYNQKFKGRVTITVDKSTSTAYMELSSLRSEDTAVYYCARSHLLRASWFAYWGQGTLVTVSSGGCGGGEVAALEKEVAALEKEVAALEKEVAALEK
B2: DART-A-M8 (bispecific antibody)
chain 1: B1 chain 1 with G223E, T231S
chain 2: B1 chain 2
B3: DART-A-M22 (bispecific antibody)
chain 1: B1 chain 1 with G223K, T231S, W232Y
chain 2: B1 chain 2
B4: DART-A-M9 (bispecific antibody)
chain 1: B1 chain 1 with G223K, T231S
chain 2: B1 chain 2

biological target: CD3 (as used for the BIACORE kinetics of Table 11) (UniProt P07766); experiment: SPR (BIACORE)
Sequence (P07766 23-126): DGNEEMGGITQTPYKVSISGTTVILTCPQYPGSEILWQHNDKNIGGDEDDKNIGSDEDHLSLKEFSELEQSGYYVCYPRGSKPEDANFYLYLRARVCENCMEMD

Binder	Kd	R (KD ratio to DART-A-WT)	R (ka ratio to DART-A-WT)	R (kd ratio to DART-A-WT)	koff	kon
B1	159 nM	19	0.8	16	0.065 s⁻¹	408000 M⁻¹ s⁻¹
B2	6.91 nM	0.8	2.3	1.9	0.00784 s⁻¹	1.13e+06 M⁻¹ s⁻¹
B3	6.6 nM	0.8	4.7	3.8	0.0156 s⁻¹	2.37e+06 M⁻¹ s⁻¹
B4	3.33 nM	0.4	4.3	1.8	0.00716 s⁻¹	2.15e+06 M⁻¹ s⁻¹

biological target: CD3 on T-cells (UniProt P07766); experiment: cell-based or functional assay
Sequence (P07766 23-207): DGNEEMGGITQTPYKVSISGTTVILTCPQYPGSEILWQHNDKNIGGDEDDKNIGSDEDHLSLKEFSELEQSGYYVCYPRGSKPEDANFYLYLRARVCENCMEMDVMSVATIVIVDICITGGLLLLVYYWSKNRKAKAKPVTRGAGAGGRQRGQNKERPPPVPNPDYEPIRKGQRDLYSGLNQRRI

Binder	EC50 of cytolysis at 18 hours (CTL assay, Pan-T-cells and MOLM-13, E:T = 5:1)	EC50 of cytolysis at 42 hours (CTL assay, Pan-T-cells and MOLM-13, E:T = 5:1)	R: ratio of 18 hour EC50 to DART-A-WT (CTL assay, Pan-T-cells and MOLM-13, E:T = 5:1)	R: ratio of 42 hour EC50 to DART-A-WT (CTL assay, Pan-T-cells and MOLM-13, E:T = 5:1)	max % CytoTox at 18 hours (CTL assay, Pan-T-cells and MOLM-13, E:T = 5:1)	max % CytoTox at 42 hours (CTL assay, Pan-T-cells and MOLM-13, E:T = 5:1)
B1	19.6 ng/mL	2.34 ng/mL	249	832	32.3%	32.4%
B2	0.069 ng/mL	0.005 ng/mL	0.9	1.7	38.4%	29.4%
B3	0.072 ng/mL	0.01 ng/mL	0.9	3.5	38.3%	31.6%
B4	0.075 ng/mL	0.001 ng/mL	1	0.4	38.2%	30.5%
